Assays:
[1] = biological target: PSTPIP1, endogenous, PAPA syndrome patient (human (endogenous in CD14+ cells)) (UniProt O43586); experiment: non-reducing SDS-PAGE with Western blot; lysates of CD14+ cells from controls and a PAPA patient, non-reducing conditions, probed with anti-PSTPIP1
[2] = biological target: the molecule itself; experiment: as above
[3] = biological target: the molecule itself; experiment: non-reducing SDS-PAGE; recombinant PSTPIP1 from E. coli run in the absence of added reducing agent, Coomassie stain

PSTPIP1, endogenous, PAPA syndrome patient (from UniProt O43586 1-416) (natural protein)
stoichiometry N [1]: 2

B1: PSTPIP1 (proline serine threonine phosphatase-interacting protein 1), endogenous, control individuals (natural protein, human (endogenous in CD14+ cells), UniProt O43586 1-416, looked up)
chain: MMPQLQFKDAFWCRDFTAHTGYEVLLQRLLDGRKMCKDMEELLRQRAQAEERYGKELVQIARKAGGQTEINSLRASFDSLKQQMENVGSSHIQLALTLREELRSLEEFRERQKEQRKKYEAVMDRVQKSKLSLYKKAMESKKTYEQKCRDADDAEQAFERISANGHQKQVEKSQNKARQCKDSATEAERVYRQSIAQLEKVRAEWEQEHRTTCEAFQLQEFDRLTILRNALWVHSNQLSMQCVKDDELYEEVRLTLEGCSIDADIDSFIQAKSTGTEPPAPVPYQNYYDREVTPLTSSPGIQPSCGMIKRFSGLLHGSPKTTSLAASAASTETLTPTPERNEGVYTAIAVQEIQGNPASPAQEYRALYDYTAQNPDELDLSAGDILEVILEGEDGWWTVERNGQRGFVPGSYLEKL
notes: PSTPIP1, human, endogenous in CD14+ cells of control individuals (C1, C2); Major species runs at 95-96 kDa (dimer) on a non-reducing gel; minor monomer at 48 kDa and faint multimers; also called CD2BP1; source: endogenous, lysates of human CD14+ cells enriched from PBMC of control individuals
stoichiometry N [2]: 2

B2: Recombinant human PSTPIP1 protein expressed in E. coli (natural protein, UniProt O43586 1-416, looked up)
chain: MMPQLQFKDAFWCRDFTAHTGYEVLLQRLLDGRKMCKDMEELLRQRAQAEERYGKELVQIARKAGGQTEINSLRASFDSLKQQMENVGSSHIQLALTLREELRSLEEFRERQKEQRKKYEAVMDRVQKSKLSLYKKAMESKKTYEQKCRDADDAEQAFERISANGHQKQVEKSQNKARQCKDSATEAERVYRQSIAQLEKVRAEWEQEHRTTCEAFQLQEFDRLTILRNALWVHSNQLSMQCVKDDELYEEVRLTLEGCSIDADIDSFIQAKSTGTEPPAPVPYQNYYDREVTPLTSSPGIQPSCGMIKRFSGLLHGSPKTTSLAASAASTETLTPTPERNEGVYTAIAVQEIQGNPASPAQEYRALYDYTAQNPDELDLSAGDILEVILEGEDGWWTVERNGQRGFVPGSYLEKL
notes: PSTPIP1, human, recombinant; monomer runs at 48 kDa; the purification is not described, only that several steps of the recovery need DTT; also called recombinant PSTPIP1; source: E. coli (pHIS8 plasmid), recovered recombinant protein
stoichiometry N [3]: 2

Reference: publication PMC2702820, “Pyrin Modulates the Intracellular Distribution of PSTPIP1” (PLoS ONE, 2009)
